From a protein production outcome set (Wang et al. 2014)

Assay: label from the status in PepcDB records
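Note: failed if final PepcDB status was selected cloned or expressed and not failed if soluble or beyond.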

Protein production, not failed:
EPNRLIKEKSPYLLQHAYNPVDWYPWGEEAFEKARKENKPVFLSIGYSTCHWCHMMAHESFEDEEVAGLMNEAFVSIKVDREERPDIDNIYMTVCQIILGRGGWPLNIIMTPGKKPFFAGTYIPKNTRFNQIGMLELVPRIKEIWEQQHEEVLDSAEKITSTIQEMIKESSG, EPVLCSRTTCRAVLNPLCQVDYRAKLWACNFCYQRNQFPPSYAGISELNQPA, EQQADGTWLMDGWISIRKASNLLEHDLVDEAERYSTLGGYLLWQFGYIPAAGEQITVDGLIFEIVSVNKHNIGKVRVHRTQPENE, ETEDQTNMIAIQADGCYIVDALTPIEDFNERFNAEFPDDDYDTIGGLVTEAIGHLPETGDELTIGRFAFRVAKANARRIHILHVTVLP, EYGYEDLRESSNSLLNHQLSEIDQARLYSCLDHMREVLGDAVPDDILTEAILKHKFDVQKALSVVLEQDG, FGLETVSENELAHSEEELRIILSESYKSGEINQSEFKYVNKIFEFDDRLAKEIMIPRTEIVSLPHDIKISEMMDIIQIEKYTRYPVEEGDKDNIIGVINIKEVLTACISGEVSVDSTISQFVNPIIHVIESAPIQDLLVKMQKERVHMAILSDEYGGTAGLVTVEDIIEEIVGEIR, FGVWVLVPRSFPRCVWFQRSMAVVIRLQGLPIVAGTMDIRHFFSGLTIPDGGVHIVGGELGEAFIVFATDEDARLGMMRTGGTIKGSKVTLLLSSKTEMQNMIELSRRRFETANLDIPPANASRSGPPPSSGMSSRVNLPTTVSNFNNPSPSVVTATTSVHESNKNIQTFSTASVGTAPPNMGASFGSPTFSSTVPSTASPMNTVPPPPIPPIPAMPSLPPMPSIPPIPVPPPVPTLPPVPPVPPIPPVPSVPPMTPLPPMSGMPPLNPPPVAPLPAGMNGSGAPMNLNNNLNPMFLGPLNPVNPIQMNSQSSVKPLPINPDDLYVSVHGMPFSAMENDVRDFFHGLRVDAVHLLKDHVGRNNGNGLVKFLSPQDTFEALKRNRMLMIQRYVEVSPATERQWVAAGGHITFKQNMGPSGQTHPPPQTLPRSKSPSGQKRSRSRSPHEAGFCVYLKGLPFEAENKHVIDFFKKLDIVEDSIYIAYGPNGKATGEGFVEFRNEADYKAALCRHKQYMGNRFIQVHPITKKGMLEKIDMIRKRLQNFSYDQREMILNPEGDVNSAKVCAHITNIPFSITKMDVLQFLEGIPVDENAVHVLVDNNGQGLGQALVQFKNEDDARKSERLHRKKLNGREAFVHVVTLEDMREIEKNPPAQGKKGLKMPVPGNPAVPGMPNAGLPGVGLPSAGLPGAGLPSTGLPGSAITSAGLPGAGMPSAGIPSAGGEEHAFLTVGSKEANNGPPFNFPGNFGGSNAFGPPIPPPGLGGGAFGDARPGMPSVGNSGLPGLGLDVPGFGGGPNNLSGPSGFGGGPQNFGNGPGSLGGPPGFGSGPPGLGSAPGHLGGPPAFGPGPGPGPGPGPIHIGGPPGFASSSGKPGPTVIKVQNMPFTVSIDEILDFFYGYQVIPGSVCLKYNEKGMPTGEAMVAFESRDEATAAVIDLNDRPIGSRKVKLVLG

Protein production, failed:
EPLKDAVLIEGLPGIGHVGRVAAEHIVEEFNGEKVLELYCDDFPPQIVVKNDGTIEYMKNEFYLVKEPVPMVIVLGNTQALSPKGQYVLSEKIVDIAMKYGATKTYTLGGFGIGKISDELKVYVASTSKELSEQHKELGAEFRTDGGSIIGAAGLMLKFSKLKGIEGICLMGETPGYLVDPKSAGNVLEMLSKAIGFEIDMKKLDERAKEMEKFIEKVQMQEQGMQAPQHQDDLSYIG, EQYEIGVKPPKPANITATYTGGVLTVRVTENGKTLTLTSNVTMPTGTGPFPVVIGMNARTGQLPTNLFNGVIQIPFNHDQVAKYTQGDRDPSYPFFQLYPNLTSNGYYSAWAWGISRLIDGIELVQAQLNADTKRIAVTGCSYAGKMALFAGAFDERIALTIAQESGGGGVNAWRVSETIGNVEKISNTNYAWFMQSLKTNFQNGNAVKLPYDHHELMAMIAPRALLVLGNPPFEWLGDESGYVSSRAAQEVWTTLGVPERFGFSFRGGHDHCSLPSASNAEVTAFVDKFLR, ERATPPVEPRQPPEAQPAERIVAERIVQELVRAGANLNNVRTMLRNVMDNNAVAFSRVEWNILLQHFPDMHTNGISSDSVLANELRQTLRQVVHQQRTQRALAPILSPAPSRPVASSSRSSQRTLLGRFTGWMAPRQTSSSSQAT, ESEKSFRILFEKSPEGFLILDGGGNILEANPAALGMLGEEMEALQGRGVFELLQGEKIPLKEEEMNQKIERIYENRLGQEVLLETILIPAQVEGKARIFAIWRDVT, EYISVKSQNELLEASTPHPGTRNHIPQLDVDANELALVYRARGMSEADAEQKAAEAFVNLRNAEDQAIIDEPRNDEPING, FFTPPHIVQLCVRLVDDFADGMTFHDPTVGSGGMLTEAAKYYREAQGGDPSKLTFTGQEINPDIAAIARMNLSLHTLNGEIERGDSLASPGFTDGDDLERFDRVLANFPFSADWAKDDLQDDQYGRFDWHTKLPRADRGDYAFIMHIAEQLKEPDCGDESGGKAAIVIPHGVLFRKHEQRYRQPMLENDLVEAIVGLPENLFQNNSIPSAILVLNTDKPADREGEVQFIHAADEAFYEELSNQNELTDDGLDHIVENFDDWTTE, FPPGTPLELGKEIAVYRIDGPVFFGAAERFATFLRDEPEVKYLILRLRFVPNMDTTGLVALEDIYHDLERHNCRLILTGLQPEVKQLLERTGLLKTIGLSNCFETTTDAICSISPQIQRCSQP, FSTFDSKYDRFLRGEEKLTDQEELGRVLISSTQFTNCNTCHEIRGAKGLEDGLFTNHKYFNIGVPANTSVRAVNGSKPDAVDLGLAQNPAVAGDPAQRGKFKVPTLRNVAVTGPYMHNGVFKDLRTVVLFYVKYKSKKPSRQINPETGKTWDAPEVPENIAMTELTSAPALDDKRVDAIVAFLKTLTDRRYEHLLPKEDGQTAAPT, FTLEEEDITGTWYVKAMVVDKDFPEDRRPRKVSPVKVTALGGGNLEATFTFMREDRCIQKKILMRKTEEPGKFSAYGGRKLIYLQELPGTDDYVFYCKDQRRGGLRYMGKLVGRNPNTNLEALEEFKKLVQHKGLSEEDIFMPLQTGSCVLEH, FTPDYIFTSKIDTSYVRQDIVPEINGWNIDRWIEEIACNDNQVVKLLWQVINDSMNGNYTRKKAIFFVGDGNNGKGTFQELLSNVIGYSNIASLKVNEFDERFKLSVLEGKTAVIGDDVPVGVYVDDSSNFKSVVTGDPVLVEFKNKPLYRATFKCTVIQSTNGMPKFKDKTGGTLRRLLIVPFNANFNGIKENFKIKEDYIKNQQVLEYVLYKAINLDFET, GAPFRSTVTLQPTSGSLVNLTEWPPFVITLDDVELVHFERVQFHLRNFDMIFVFKEYNKKVAMVNAIPMNMLDHVKEWLNSCDIRYSEGVQSLNWQKIMKTITDDP, GAPGPCGLARQNSTSLTGKPGALPANLDDMKVAELKQELKLRSLPVSGTKTELIERLRAYQDQISPVPGAPKAPAATSILHKAGEVVVAFPAARLST, GASDGGGSIRIPASFSGLIGLKPSRGSMPVGPEGWRGWQGASIDFALTISMRDTKALFYGLRGSHSGAPYQAPLAEWQTHPKKQRLKIALCTASPIGSLISPEATQAAKQAADFLAAAGHEIIEIPYPVDGAALIRSYYQMNGAETTAMMNSIQQGLGRPIRKEEIESFSWTMHQFGQKIPAATYVHSLQLWDQAAVTMEELFQKFDLFLSPTTAFSAPKINEDLQSEHIRQRMAQAAELTEAELAELIYDYFDKSLQLTPYTQLANLTGQPAISLPTHVTATGLPLGIQLLAARGREDLLFQVGEQFEQEGK, GCTLSAEERAALERSKAIEKNLKEDGISAAKDVKLLLLGAGESGKSTIVKQMKIIHEDGFSGEDVKQYKPVVYSNTIQSLAAIVRAMDTLGIEYGDKERKADAKMVCDVVSRMEDTEPFSAELLSAMMRLWGDSGIQECFNRSREYQLNDSAKYYLDSLDRIGAADYQPTEQDILRTRVKTTGIVETHFTFKNLHFRLFDVGGQRSERKKWIHCFEDVTAIIFCVALSGYDQVLHEDETTNRMHESLKLFDSICNNKWFTDTSIILFLNKKDIFEEKIKKSPLTICFPEYTGPSAFTEAVAYIQAQYESKNKSAHKEIYTHVTCATDTNNIQFVFDAVTDVIIAKNLRGCGLY, GDFGRHSITSGGSGGGGFRQRGSSGSSSRHTERGYSSGRSGASSYNGREGGGSGFNRREVYGGGRDSSRYSSGSSASYGRTGGQSAGRFRSRSPVGNHRF
